In US6703489 (YALE UNIVERSITY, dated 2004):

B1: Drosophila Serrate, full-length (expression construct Ser-mtn), expressed on Drosophila S2 cells (ligand)
chain: GNFELEILEISNTNSHLLNGYCCGMPAELRATKTIGCSPCTTAFRLCLKEYQTTEQGASISTGCSFGNATTKILGGSSFVLSDPGVGAIVLPFTFRWTKSFTLILQALDMYNTSYPDAERLIEETSYSGVILPSPEWKTLDHIGRNARITYRVRVQCAVTYYNTTCTTFCRPRDDQFGHYACGSEGQKLCLNGWQGVNCEEAICKAGCDPVHGKCDRPGECECRPGWRGPLCNECMVYPGCKHGSCNGSAWKCVCDTNWGGILCDQDLNFCGTHEPCKHGGTCENTAPDKYRCTCAEGLSGEQCEIVEHPCATRPCRNGGTCTLKTSNRTQAQVYRTSHGRSNMGRPVRRSSSMRSLDHLRPEGQALNGSSSSGLVSLGSLQLQQQLAPDFTCDCAAGWTGPTCEINIDECAGGPCEHGGTCIDLIGGFRCECPPEWHGDVCQVDVNECEAPHSAGIAANALLTTTATAIIGSNLSSTALLAALTSAVASTSLAIGPCINAKECRNQPGSFACICKEGWGGVTCAENLDDCVGQCRNGATCIDLVNDYRCACASGFTGRDCETDIDECATSPCRNGGECVDMVGKFNCICPLGYSGSLCEEAKENCTPSPCLEGHCLNTPEGYYCHCPPDRAGKHCEQLRPLCSQPPCNEGCFANVSLATSATTTTTTTTTATTTRKMAKPSGLPCSGHGSCEMSDVGTFCKCHVGHTGTFCEHNLNECSPNPCRNGGICLDGDGDFTCECMSGWTGKRCSERATGCYAGQCQNGGTCMPGAPDKALQPHCRCAPGWTGLFCAEAIDQCRGQPCHNGGTCESGAGWFRCVCAQGFSGPDCRINVNECSPQPCQGGATCIDGIGGYSCICPPGRHGLRCEILLSDPKSACQNASNTISPYTALNRSQNWLDIALTGRTEDDENCNACVCENGTSRCTNLWCGLPNCYKVDPLSKSSNLSGVCKQHEVCVPALSETCLSSPCNVRGDCRALEPSRRVAPPRLPAKSSCWPNQAVVNENCARLTILLALERVGKGASVEGLCSLVRVLLAAQLIKKPASTFGQDPGMLMVLCDLKTGTNDTVELTVSSSKLNDPQLPVAVGLLGELLSSRQLNGIQRRKELELQHAKLAALTSIVEVKLETARVADGSGHSLLIGVLCGVFIVLVGFSVFISLYWKQRLAYRTSSGMNLTPSLDALRHEEEKSNNLQNEENLRRYTNPLKGSTSSLRAATGMELSLNPAPELAASAASSSALHRSQPLFPPCDFERELDSSTGLKQAHKRSSQILLHKTQNSDMRKNTVGSLDSPRKDFGKRSINCKSMPPSSGDEGSDVLATTVMV
notes: also called full-length Serrate
B2: Drosophila Delta, expressed on cells (ligand, Drosophila melanogaster, UniProt P10041 19-833, looked up)
chain: QVHSSGSFELRLKYFSNDHGRDNEGRCCSGESDGATGKCLGSCKTRFRVCLKHYQATIDTTSQCTYGDVITPILGENSVNLTDAQRFQNKGFTNPIQFPFSFSWPGTFSLIVEAWHDTNNSGNARTNKLLIQRLLVQQVLEVSSEWKTNKSESQYTSLEYDFRVTCDLNYYGSGCAKFCRPRDDSFGHSTCSETGEIICLTGWQGDYCHIPKCAKGCEHGHCDKPNQCVCQLGWKGALCNECVLEPNCIHGTCNKPWTCICNEGWGGLYCNQDLNYCTNHRPCKNGGTCFNTGEGLYTCKCAPGYSGDDCENEIYSCDADVNPCQNGGTCIDEPHTKTGYKCHCANGWSGKMCEEKVLTCSDKPCHQGICRNVRPGLGSKGQGYQCECPIGYSGPNCDLQLDNCSPNPCINGGSCQPSGKCICPAGFSGTRCETNIDDCLGHQCENGGTCIDMVNQYRCQCVPGFHGTHCSSKVDLCLIRPCANGGTCLNLNNDYQCTCRAGFTGKDCSVDIDECSSGPCHNGGTCMNRVNSFECVCANGFRGKQCDEESYDSVTFDAHQYGATTQARADGLTNAQVVLIAVFSVAMPLVAVIAACVVFCMKRKRKRAQEKDDAEARKQNEQNAVATMHHNGSGVGVALASASLGGKTGSNSGLTFDGGNPNIIKNTWDKSVNNICASAAAAAAAAAAADECLMYGGYVASVADNNNANSDFCVAPLQRAKSQKQLNTDPTLMHRGSPAGSSAKGASGGGPGAAEGKRISVLGEGSYCSQRWPSLAAAGVAGACSSQLMAAASVAGSGAGTAQQQRSVVCGTPHM
notes: whole, on cells; That entry appears to be only part of Delta, so it was not used for the whole protein on cells; also called Delta expressing cells

How the values were obtained:
[1] = molecular target: the molecule itself; test: cell aggregation assay, S2 cells
[2] = molecular target: B1; test: cell aggregation assay, S2 cells

Binder	binding result [1]	binding result [2]
B1	no binding	
B2		no binding
